Source: US6340783B1, “Rodent models of human amyloidoses” (University of Washington, priority 1992, dated 2002)
Like-named read-outs stand apart in the source and are kept apart here.

Molecular target: T1, BAP (1-28) (Homo sapiens, UniProt P05067)
T1 construct: residues 1-28 of BAP or residues 597-624 of BAPP; purchased Bachem Inc., Torrance, Calif; host or cells: synthetic peptide
Experiment: Solid phase binding assay, Scatchard analysis of 125I-BAP (1-28) binding to high Mr HSPG
Description: Nitrocellulose coated wells were incubated overnight at room temperature with 100 μl of TBS containing 1.5 μg (with 0.28 μg binding to the well) of high Mr HSPG. Wells were blocked overnight at room temperature with 200 μl of 5% non-fat dried milk. After blocking, wells were rinsed 3 times with 200 μl of TBS. Various quantities of ^125I-BAP (1-28) (specific activity=6,683 cpm/pm) diluted in 100 μl of TBS/0.05% Tween 20 was added in triplicate to wells and incubated for 2.5 hours at room temperature on an orbital shaker. At the end of the incubation period, free ^125I-BAP was removed from each well and transferred to scintillation vials for counting. In addition, each well was washed 6 times with 200 μl of TBS/0.05% Tween 20, and the wash was added to each of the same scintillation vials described above, to determine the total “free” 125I-BAP fraction for each well. Bound ^125-BAP was extracted from wells by incubation with 100 μl of 1N NaOH at room temperature for 1 hour, and quantitated by liquid scintillation counting. Recovery of ^125I-BAP as free and bound radioactivity exceeded 90%. […] Bars indicate standard error of the mean.
^125I-HSPG (specific activity=1,104 cpm/ug) isolated from EC culture media was used to determine the amount of HSPG which bound to microtiter wells. Polyvinyl microtiter wells were coated with 100 μl of nitrocellulose solution (Schleicher and Schuell) (10 cm^2 of BA85 nitrocellulose in 10 ml of methanol) and allowed to dry at room temperature for 4 hours. Wells were coated overnight at room temperature with unlabeled HSPG to give 0.12 μg or 0.28 μg of bound-HSPG per well, and blocked overnight at room temperature with 200 μl of 5% non-fat dried milk (Carnation Co., Los Angeles, Calif.). Various quantities of 125I-BAP (residues 1-28) (specific activity=6,683 cpm/pm) diluted in 100 μl of TBS/0.05% Tween 20 were added in triplicate to wells and incubated for 2.5 hours at room temperature on an orbital shaker. At the end of the incubation. period, free ^125I-BAP was then removed with 6 washes of TBS/0.05% Tween 20. Bound ^125I-BAP was extracted from wells by incubation with 100 μl of 1N NaOH at room temperature for 1 hour, and “bound” versus “free” radioactivity was quantitated by liquid scintillation counting. Recovery of ^125I-BAP as free and bound radioactivity exceeded 90%. A set of controls using 5% BSA-coated wells was also included in all experiments.
To quantitate the interaction between the high Mr HSPG and BAP (1-28), 0.12 μg or 0.28 μg of the HSPG (isolated from the culture media of ECs; see FIG. 9B, lane 1) were immobilized on nitrocellulose coated wells and incubated with increasing concentrations of ^125I-BAP.

T1 sequence (P05067 672-699 limits assumed): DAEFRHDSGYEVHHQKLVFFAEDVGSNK

With “high Mr HSPG: ˜600-800 kDa heparan sulfate proteoglycan isolated from culture media of bovine aortic endothelial cells” the Kd (125I-BAP (1-28), Scatchard analysis, HSPG on nitrocellulose coated wells, read-out: Kd of the high affinity binding site) was 0.083 nM, the Kd (125I-BAP (1-28), Scatchard analysis, HSPG on nitrocellulose coated wells, read-out: Kd of the low affinity binding site) was 42 nM and the “moles of BAP bound by 1 mole of HSPG” value (assuming molecular weights of 700,000 and 2,800) was about 1.8 mol. The Kd (binding to BAP/β/A4 (1-28), read-out: Kd of the low affinity binding site (unit inferred)) was 42 nM.
